These are literature values, as cited in PMC6653659.

The data set addresses glucocorticoid receptor LBD (Homo sapiens) (UniProt P04150).

Take “glucocorticoid receptor LBD (from UniProt P04150)”: the dissociation constant Kd was 1500 nM.
